Results on two molecules are retold here after patent US20210393713A1 (University of Pennsylvania, published 2021).

Changes are numbered by the printed parent chain. Numbers in names are those of the source.

The test concerns the target T1, Twin-Strep-tagged LY6A, BALB/cJ variant (GPI-anchor truncated, soluble) (mouse (BALB/cJ), UniProt P05533 27-111).
T1 construct: range 1-111; also called BALB/cJ LY6A; BABL/cJ LY6A; not shown: Twin-Strep-tag from vector pESG-IBA103
T1 sequence: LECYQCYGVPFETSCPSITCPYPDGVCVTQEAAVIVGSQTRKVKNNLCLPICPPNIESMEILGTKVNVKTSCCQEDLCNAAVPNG
Put plainly: ELISA, AAV particles on plate-bound Twin-Strep-tagged LY6A.

B1: AAV-PHP.B V592G mutant capsid (other)
chain: MAADGYLPDWLEDNLSEGIREWWALKPGAPQPKANQQHQDNARGLVLPGYKYLGPGNGLDKGEPVNAADAAALEHDKAYDQQLKAGDNPYLKYNHADAEFQERLKEDTSFGGNLGRAVFQAKKRLLEPLGLVEEAAKTAPGKKRPVEQSPQEPDSSAGIGKSGAQPAKKRLNFGQTGDTESVPDPQPIGEPPAAPSGVGSLTMASGGGAPVADNNEGADGVGSSSGNWHCDSQWLGDRVITTSTRTWALPTYNNHLYKQISNSTSGGSSNDNAYFGYSTPWGYFDFNRFHCHFSPRDWQRLINNNWGFRPKRLNFKLFNIQVKEVTDNNGVKTIANNLTSTVQVFTDSDYQLPYVLGSAHEGCLPPFPADVFMIPQYGYLTLNDGSQAVGRSSFYCLEYFPSQMLRTGNNFQFSYEFENVPFHSSYAHSQSLDRLMNPLIDQYLYYLSRTINGSGQNQQTLKFSVAGPSNMAVQGRNYIPGPSYRQQRVSTTVTQNNNSEFAWPGASSWALNGRNSLMNPGPAMASHKEGEDRFFPLSGSLIFGKQGTGRDNVDADKVMITNEEEIKTTNPVATESYGQVATNHQSAQTLAGPFKAQAQTGWVQNQGILPGMVWQDRDVYLQGPIWAKIPHTDGNFHPSPLMGGFGMKHPPPQILIKNTPVPADPPTAFNKDKLNSFITQYSTGQVSVEIEWELQKENSKRWNPEIQYTSNYYKSNNVEFAVNTEGVYSEPRPIGTRYLTRNL
Regarding B1, the binding result was “no binding”.

B2: AAV-PHP.eB capsid (other)
chain: B1 chain with A587D, Q588G, G592V
For B2, the binding result was “binds”.
